Results published in the supplement of paper PMC10126150.
± gives the standard deviation of the averaged measurements.

test system: ATP; test: switch fluorescence ratio, 500 uM ATP over buffer (Cy3 cluster intensity, sum of 5 cycles each) (fold (ratio)); higher = stronger signal-on switching upon ATP binding; sequences stand for … in TCGTCGGCAGCGTCAGATGTGTATAAGAGACAGTTTTTTTTTTTTTTTTTTTTTTTTT…TC; details: aptamer strand: ATP DNA aptamer (quencher-CACCTGGGGGAGTATTGCGGAGGAAGG + anchor), 100 nM annealed; ATP concentration: 500 uM
Method in brief: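 The fluorescence ratio divides summed target-cycle Cy3 intensity by summed buffer-cycle Cy3 intensity for each cluster and is averaged per switch-domain sequence. Cy3-labelled switching-strand clusters on a modified Illumina MiSeq flow-cell were annealed to 100 nM quencher-labelled ATP aptamer, then imaged in selection buffer and again after 15 min with 500 uM ATP at 22 °C. Five such cycles were run, with NaOH stripping and re-annealing between them, and clusters outside 100-1000 RFU were excluded.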
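Further: ATP exposure 15 min at 22 °C before imaging.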

| Sequence | switch fluorescence ratio |
| --- | --- |
| TGAATATTAA | 0.985 ± 0.025 |
| CAGGTCACTG | 0.965 ± 0.044 |
| GGAGAAAATG | 1.0023 ± 0.00074 |
| TTCTGTGGCG | 1 ± 0.069 |
| AGTTAAATTT | 0.994 ± 0.035 |
| GTTTAGAGCG | 1.026 ± 0.01 |
| CGTTTGAGTG | 1.02 ± 0.023 |
| TTTTTTCTTC | 1.04 ± 0.011 |
| ACGACATTTT | 1.084 ± 0.0048 |
| GGTGTGGAAA | 1 ± 0.015 |
| AAGTGAGAAA | 0.983 ± 0.066 |
| TTGTTTTTGA | 1.05 ± 0.067 |
| GGGTGGTCAG | 1.01 ± 0.023 |
| ATTGGGATGC | 1.04 ± 0.02 |
| AAGTAGTTCG | 0.9823 ± 0.0037 |
| GGTTTGCAGT | 1.003 ± 0.0093 |
| ATCTTGGTCT | 1.01 ± 0.045 |
| ACTCAGGGGG | 1.27 ± 0.32 |
| CGGGGAGAC | 1.02 ± 0.062 |
| TGGGTTTTTC | 0.968 ± 0.03 |
| AGGGTTTGCT | 0.96929 ± 0.00044 |
| CAGGGGGGCC | 1.03 ± 0.02 |
| TTCCACGACT | 1.02 ± 0.025 |
| TGTGGAAGGT | 0.9999 ± 0.0078 |
| AAACGGGGGT | 0.991 ± 0.0073 |

| Sequence | switch fluorescence ratio |
| --- | --- |
| GCGGGCGTTG | 0.996 ± 0.053 |
| AGGAAGTGGG | 0.959 ± 0.028 |
| TTTTAGGAAG | 0.9937 ± 0.0097 |
| ATTAATTCGT | 0.996 ± 0.071 |
| CGTGCTGGTT | 1.01 ± 0.061 |
| AAAATGTAGG | 0.957 ± 0.03 |
| CGTTTATTGA | 1.004 ± 0.0086 |
| GTCTGGGGTG | 1.04 ± 0.021 |
| GAATGTTCTG | 0.996 ± 0.052 |
| GGGTAAAGTC | 0.994 ± 0.047 |
| CTGTGGAGGG | 0.9455 ± 0.0091 |
| TGGGCCAGTG | 1.05 ± 0.014 |
| GGGGGATATT | 1.01 ± 0.037 |
| TTCTCGTTGG | 1.02 ± 0.032 |
| TGTATTCAAT | 0.986 ± 0.013 |
| GATAATGGTA | 1.008 ± 0.005 |
| AGCCCGTTTG | 0.964 ± 0.053 |
| AGAATAAAGG | 0.993 ± 0.05 |
| GGAATCTGTA | 0.949 ± 0.022 |
| TCGGGGCCGC | 0.981 ± 0.11 |
| CAGTCTATCA | 0.972 ± 0.029 |
| GGTTGGTGGG | 0.969 ± 0.044 |
| ACGGGCTTTT | 1.01 ± 0.012 |
| AAGAGGGGGG | 0.999 ± 0.053 |
| CCTGCTGTTC | 1.51 ± 0.09 |

| Sequence | switch fluorescence ratio |
| --- | --- |
| ATCAGGGTAC | 1.05 ± 0.04 |
| ATGAAGGTCT | 0.968 ± 0.02 |
| TTAGAGAGTG | 0.984 ± 0.044 |
| ACATTGAAAA | 0.996 ± 0.036 |
| GGAGATGTGG | 0.989 ± 0.011 |
| TCGACATGGT | 0.995 ± 0.041 |
| AATTTCCGAG | 1.17 ± 0.037 |
| GCTTGAGGGA | 0.984 ± 0.042 |
| GAAGAAAGGT | 0.966 ± 0.064 |
| CGAAAAGTTT | 0.994 ± 0.023 |
| GAGGGTTAAT | 1.02 ± 0.02 |
| TTGGTGTGGG | 0.986 ± 0.045 |
| CTAGAGGCTG | 1.03 ± 0.073 |
| CGTTGCTTTG | 0.9869 ± 0.0016 |
| ACTTTTGCTG | 0.983 ± 0.019 |
| CTCTCAAGGG | 1.088 ± 0.0077 |
| CGGGTAATGG | 1.03 ± 0.07 |
| ATATGTGGGT | 0.989 ± 0.038 |
| GGAGACAGTT | 0.971 ± 0.024 |
| ATTTGATAGT | 1.007 ± 0.0052 |
| CGTTCCCCCA | 1.355 ± 0.013 |
| TCCAAAGATG | 0.9892 ± 0.005 |
| AGATGGGAAT | 1.04 ± 0.0028 |
| TCTAGCACGG | 1.06 ± 0.023 |
| TTGGTTTAGA | 0.979 ± 0.028 |

| Sequence | switch fluorescence ratio |
| --- | --- |
| TACAAATTGA | 1.02 ± 0.021 |
| TAGAGAGGAG | 1.03 ± 0.021 |
| TCACTTATAA | 1.02 ± 0.018 |
| ATTGCAGGGA | 0.993 ± 0.042 |
| TGGTGTCGTG | 0.999 ± 0.034 |
| CGTTCGCCGG | 0.99801 ± 8.6e-05 |
| ACGATTGTGG | 0.983 ± 0.014 |
| GAATAAAATG | 1.04 ± 0.013 |
| GTTTTTATTT | 0.976 ± 0.031 |
| CACGGTGGGT | 0.9898 ± 0.0079 |
| CGTGGAGGGA | 1.01 ± 0.027 |
| GCTACTGTTA | 1.077 ± 0.0025 |
| AGGGTTAAAT | 1 ± 0.012 |
| TTGGGGGTAT | 1.05 ± 0.068 |
| ATTCCAAGGT | 0.997 ± 0.029 |
| TCAGACTAGA | 1.028 ± 0.0045 |
| TATAAAGAGC | 1.08 ± 0.081 |
| CGGGACAGGG | 1 ± 0.013 |
| CATGAGTATT | 0.954 ± 0.033 |
| AAGGATAGGC | 1 ± 0.013 |
| GTGACAATTT | 0.998 ± 0.069 |
| TGGATGAGTG | 0.9822 ± 0.0077 |
| TAGGGCAGGT | 1.01 ± 0.036 |
| TGGGTTAACT | 1.02 ± 0.041 |
| CAGCTACTTG | 1.05 ± 0.025 |
